The source of these data is article doi:10.1101/790931.

The target of assay [1] is FITC-labelled P. aeruginosa TolB[22-34] peptide (Pseudomonas aeruginosa). Put plainly: fluorescence polarisation.
The target of assay [2] is T1, C-terminal domain of E. coli TolA (E. coli).
T1 sequence (P19934 whole entry, looked up): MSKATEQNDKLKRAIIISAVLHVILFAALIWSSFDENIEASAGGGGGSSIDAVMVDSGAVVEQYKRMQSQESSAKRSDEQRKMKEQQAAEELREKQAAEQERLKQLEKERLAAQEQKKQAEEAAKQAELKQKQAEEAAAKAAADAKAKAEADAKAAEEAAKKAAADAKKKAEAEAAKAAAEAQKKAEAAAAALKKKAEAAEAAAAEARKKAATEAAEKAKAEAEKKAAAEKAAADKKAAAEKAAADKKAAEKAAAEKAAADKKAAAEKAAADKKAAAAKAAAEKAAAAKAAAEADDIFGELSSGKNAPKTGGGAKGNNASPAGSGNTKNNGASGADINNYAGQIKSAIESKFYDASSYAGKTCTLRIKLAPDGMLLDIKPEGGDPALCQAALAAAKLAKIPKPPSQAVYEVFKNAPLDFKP
Put plainly: ITC. (In ITC the heat of successive injections is recorded.)

No end group written: not given here.

Sequence of P. aeruginosa TolA (residues 224-344) lacking its short C-terminal α-helix (P50600 224-344): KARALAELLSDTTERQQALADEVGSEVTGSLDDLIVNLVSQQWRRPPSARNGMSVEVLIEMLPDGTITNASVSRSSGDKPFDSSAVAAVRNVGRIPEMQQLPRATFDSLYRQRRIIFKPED
Sequence of C-terminal domain of Pseudomonas aeruginosa TolA (TolA^224-347) (P50600 224-347): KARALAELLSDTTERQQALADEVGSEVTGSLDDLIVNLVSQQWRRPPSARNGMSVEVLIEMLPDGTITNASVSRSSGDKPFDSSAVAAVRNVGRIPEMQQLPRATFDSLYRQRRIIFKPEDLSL

In assay [1], “C-terminal domain of Pseudomonas aeruginosa TolA (TolA^224-347) (from UniProt P50600 224-347) (domain or fragment)” registered a Kd of 250 µM, a koff of 0.9 s⁻¹ and a kon of 7400 M⁻¹ s⁻¹.

With “P. aeruginosa TolA (residues 224-344) lacking its short C-terminal α-helix (from UniProt P50600 224-344) (domain or fragment)”, in assay [1], the dissociation constant Kd was found to be 86 µM, the koff was determined as 1.4 s⁻¹ and the on-rate constant (kon) is 23800 M⁻¹ s⁻¹.

In the case of EVRIVIDSGVDS-NH2 [E. coli TolB peptide (residues 22-33)], in assay [2], the Kd is 44 µM, the dH is -3.79 kcal/mol and the stoichiometry N was found to be 0.56.

One may read the Kd as the equilibrium constant for the complex coming apart. A low value points to higher affinity. Broadly, the koff is the first-order rate constant of dissociation. What is called kon is the rate constant with which the complex forms. A word on the stoichiometry N: it is the number of molecules, sites or subunits per partner or assembly.
